Test results: US20210130436A1 (published 2021)
Substitutions are numbered along the chain they refer to. Names and notes keep the numbering of the source. Blank lines part the entries; values can stand above or below the binder they belong to.

Experiments:
[1] = biological target: T1, human PD-L1, expressed on cells (human, UniProt Q9NZQ7 19-290); assay: flow cytometry of live CD45- cells of digested hPD-L1 MC38 tumors after treatment in vivo, detection of the bound Fc protein (FIG. 15)
T1 construct: On CHO/PD-L1, K562/OKT3/PD-L1 and CHO/OKT3/PD-L1 aAPC, huPD-L1-transduced MC38 cells, or primary human monocytes; also called huPD-L1; hPD-L1

[2] = biological target: T2, TIGIT (Homo sapiens (Human), UniProt Q495A1 23-244); assay: flow cytometry on TIGIT-transfected Expi293 cells
T2 construct: also called TIGIT tfxn
T2 sequence: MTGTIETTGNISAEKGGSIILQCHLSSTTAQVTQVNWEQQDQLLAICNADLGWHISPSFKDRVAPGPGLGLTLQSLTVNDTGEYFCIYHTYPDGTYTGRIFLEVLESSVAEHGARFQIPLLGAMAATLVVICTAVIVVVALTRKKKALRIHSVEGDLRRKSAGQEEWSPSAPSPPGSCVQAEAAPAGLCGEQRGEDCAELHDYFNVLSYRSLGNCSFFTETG

[3] = biological target: T3, CD96 (UniProt P40200 22-585, limits assumed); assay: flow cytometry on CD96-expressing cells
T3 construct: whole, on cells
T3 sequence (looked up): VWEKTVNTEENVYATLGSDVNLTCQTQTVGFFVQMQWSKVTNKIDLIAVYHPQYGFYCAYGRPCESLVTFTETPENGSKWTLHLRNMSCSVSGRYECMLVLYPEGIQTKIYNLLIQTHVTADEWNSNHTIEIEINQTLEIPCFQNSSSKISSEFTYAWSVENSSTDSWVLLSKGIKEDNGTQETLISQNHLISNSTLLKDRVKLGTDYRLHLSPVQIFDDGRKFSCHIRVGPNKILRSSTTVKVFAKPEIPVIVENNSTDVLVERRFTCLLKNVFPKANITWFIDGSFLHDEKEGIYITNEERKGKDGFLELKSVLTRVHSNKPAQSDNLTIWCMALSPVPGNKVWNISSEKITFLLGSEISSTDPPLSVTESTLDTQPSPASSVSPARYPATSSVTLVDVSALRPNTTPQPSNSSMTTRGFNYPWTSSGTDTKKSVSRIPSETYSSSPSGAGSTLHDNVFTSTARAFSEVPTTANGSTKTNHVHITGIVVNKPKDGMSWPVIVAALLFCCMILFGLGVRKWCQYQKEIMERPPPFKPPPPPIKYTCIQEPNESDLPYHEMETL

[4] = biological target: T2, TIGIT; assay: flow cytometry on TIGIT-transfected Expi293 cells; reference itself
[5] = biological target: T3, CD96; assay: flow cytometry on CD96-expressing cells; reference itself
[6] = biological target: T4, CD226 (Homo sapiens (Human), UniProt Q15762 19-336); assay: flow cytometry on CD226-transfected Expi293 cells; reference itself
T4 construct: also called CD226 tfxn
T4 sequence: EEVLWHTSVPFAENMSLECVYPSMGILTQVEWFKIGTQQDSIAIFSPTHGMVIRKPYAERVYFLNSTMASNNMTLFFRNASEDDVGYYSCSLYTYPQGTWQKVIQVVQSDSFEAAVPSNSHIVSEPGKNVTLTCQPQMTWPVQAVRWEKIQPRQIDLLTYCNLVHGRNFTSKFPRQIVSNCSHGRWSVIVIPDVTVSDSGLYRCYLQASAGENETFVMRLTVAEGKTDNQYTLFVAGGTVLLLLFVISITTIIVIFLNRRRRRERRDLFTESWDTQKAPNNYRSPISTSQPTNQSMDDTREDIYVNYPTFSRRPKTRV

[7] = biological target: T4, CD226; assay: flow cytometry on CD226-transfected Expi293 cells
[8] = biological target: T5, TIGIT (UniProt Q495A1 22-244); assay: flow cytometry, MFI ratio to wildtype CD155 ECD-Fc, TIGIT cells
T5 construct: whole, on cells
T5 sequence (looked up): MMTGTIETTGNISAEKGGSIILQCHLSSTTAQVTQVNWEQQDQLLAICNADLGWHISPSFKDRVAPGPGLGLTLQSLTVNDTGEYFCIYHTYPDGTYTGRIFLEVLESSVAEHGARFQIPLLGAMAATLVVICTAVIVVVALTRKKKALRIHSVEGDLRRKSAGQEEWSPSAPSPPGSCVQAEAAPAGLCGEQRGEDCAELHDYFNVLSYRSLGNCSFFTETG

[9] = biological target: T5, TIGIT; assay: flow cytometry on cells expressing TIGIT, Fc fusion at 100 nM
[10] = biological target: T6, TIGIT (UniProt Q495A1 22-244); assay: flow cytometry, Fc fusion at 25 nM on cells expressing TIGIT
T6 construct: whole, on cells; Expressed on transfected cells
T6 sequence (looked up): T5 sequence (looked up)

[11] = biological target: T7, human CD28 (human, UniProt P10747 19-220); assay: flow cytometry on Jurkat cells (CD28); vs CD80 WT IgV-Fc
T7 construct: Endogenous CD28 on Jurkat/IL2 reporter cells

[12] = biological target: T8, human CTLA-4 (human, UniProt P16410 36-223); assay: flow cytometry on CHO cells stably expressing CTLA4; vs CD80 WT IgV-Fc
T8 construct: also called huCTLA4

[13] = biological target: T9, human PD-L1 (human, UniProt Q9NZQ7 19-290); assay: flow cytometry on CHO cells stably expressing PD-L1; vs CD80 WT IgV-Fc
T9 construct: also called huPD-L1; CD274

[14] = biological target: T9, human PD-L1; assay: flow cytometry; PD-L1 MFI over CD28 MFI
[15] = biological target: T9, human PD-L1; assay: cell-based or functional assay

T9 sequence (Q9NZQ7 19-290): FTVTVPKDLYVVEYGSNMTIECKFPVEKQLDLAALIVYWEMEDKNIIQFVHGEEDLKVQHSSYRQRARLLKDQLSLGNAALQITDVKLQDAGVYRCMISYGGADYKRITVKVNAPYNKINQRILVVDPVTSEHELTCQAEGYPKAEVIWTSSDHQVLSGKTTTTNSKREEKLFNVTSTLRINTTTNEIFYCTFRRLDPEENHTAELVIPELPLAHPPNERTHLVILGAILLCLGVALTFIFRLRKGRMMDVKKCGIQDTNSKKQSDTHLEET
T8 sequence (P16410 36-223): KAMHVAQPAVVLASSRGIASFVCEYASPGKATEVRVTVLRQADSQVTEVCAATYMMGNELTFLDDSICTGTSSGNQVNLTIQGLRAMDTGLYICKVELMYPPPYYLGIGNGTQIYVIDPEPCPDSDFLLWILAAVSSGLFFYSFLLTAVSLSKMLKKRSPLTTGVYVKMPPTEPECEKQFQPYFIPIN
T1 sequence (Q9NZQ7 19-290): as the sequence (Q9NZQ7 19-290) above

B1: CD80 variant E35D/M47L (SEQ ID NO: 208)-Fc (inert) (Fc fusion)
chain: VIHVTKEVKEVATLSCGHNVSVEELAQTRIYWQKDKKMVLTMMSGDLNIWPEYKNRTIFDITNNLSIVILALRPSDEGTYECVVLKYEKDAFKREHLAEVTLSVKADGSGGGGSEPKSSDKTHTCPPCPAPEAEGAPSVFLFPPKPKDTLMISRTPEVTCVVVDVSHEDPEVKFNWYVDGVEVHNAKTKPREEQYNSTYRVVSVLTVLHQDWLNGKEYKCKVSNKALPAPIEKTISKAKGQPREPQVYTLPPSREEMTKNQVSLTCLVKGFYPSDIAVEWESNGQPENNYKTTPPVLDSDGSFFLYSKLTVDKSRWQQGNVFSCSVMHEALHNHYTQKSLSLSPG
notes: also called E35D/M47L CD80-IgV-Fc; E35D/M47L CD80-Fc
binding result [1]: binds

B3: CD155 IgV Fc (Fc fusion, not shown: a dimerising Fc or GST)
chain: WPPPGTGDVVVQAPTQVPGFLGDSVTLPCYLQVPNMEVTHVSQLTWARHGESGSMAVFHQTQGPSYSESKRLEFVAARLGAELRNASLRMFGLRVEDEGNYTCLFVTFPQGSRSVDIWLRVL
Fold ↑ to WT ECD [8]: 0.01 fold
MFI at 100 nM [9]: 4690 MFI

B4: variant CD155 IgV-Fc V9L/V11M/P18S/N35S/S54G/Q62K/L79P/L104M/T107M/V115M (Fc fusion, not shown: a dimerising Fc or GST)
chain: B3 chain with V9L, V11M, P18S, N35S, S54G, Q62K, L79P, L104M, T107M, V115M
notes: also called V9L/V11M/P18S/N355/S54G/Q62K/L79P/L104M/T107M/V115M
MFI at 25 nM [10]: 3000 MFI

Results, then the binder that gave them:

MFI [2]: 2720 MFI
MFI [3]: 3080 MFI
MFI parental ratio [4]: 1 fold
MFI parental ratio [5]: 1 fold
MFI parental ratio [6]: 1 fold
MFI [7]: 3720 MFI
B2: wild-type CD155 IgV-Fc (Fc fusion, not shown: a dimerising Fc or GST)
chain: B3 chain

Fold change to WT CD80 [11]: 1 fold
Fold change to WT CD80 [12]: 1 fold
Fold change to WT CD80 [13]: 1 fold
Ratio of PDL1:CD28 [14]: 1.6 ratio
Fold Increase over WT CD80-IgV-Fc, Jurkat/IL2 + CHO/OKT3/PD-L1 Reporter Assay [15]: 1 fold
B5: wild-type CD80 IgV-Fc (inert), Example 15 (Fc fusion, not shown: a dimerising Fc or GST)
chain: VIHVTKEVKEVATLSCGHNVSVEELAQTRIYWQKEKKMVLTMMSGDMNIWPEYKNRTIFDITNNLSIVILALRPSDEGTYECVVLKYEKDAFKREHLAEVTLSVKAD
notes: Inert Fc fusion; also called CD80 WT IgV-Fc
